Data set [1] is classed as binding, Saccharomyces cerevisiae. The text has this:
CO-sensor of the 19 full-length cytochrome P450 clones from Taxus, thus far obtained, ten have yielded detectable CO-difference spectra (Table 2). […] These alternative expression systems for cytochrome P450 genes include the yeast Pichia pastoris, for which expression vectors and hosts are commercially available (Invitrogen, Carlsbad, Calif.), as well as established E. coli and baculovirus-insect cell systems for which general expression procedures have been described (Barnes, Methods Enzymol. 272:1–14, 1996;Gonzalez et al., Methods Enzymol. 206:93–99, 1991;Lee et al., Methods Enzymol. 272:86–98, 1996;and Lupien et al., Arch. Biochem. Biophys. 368:181–192, 1999).
Appropriate restriction sites were introduced by standard PCR methods (Innis et al., PCR Protocols: A Guide to Methods and Applications, Academic Press, San Diego, Calif., 1990) immediately upstream of the ATG start codon and downstream of the stop codon of all full-length cytochrome P450 clones. These modified amplicons were gel-purified, digested with the corresponding restriction enzymes, and then ligated into the expression vector pYeDP60. The vector/insert junctions were sequenced to ensure that no errors had been introduced by the PCR construction. Verified clones were transformed into yeast using the lithium acetate method (Ito et al., J. Bacteriol. 153:163–168, 1983). Isolated transformants were grown to stationary phase in SGI medium (Pompon et al., Methods Enzymol. 272:51–64, 1996), and used as inocula for a large-scale expression culture grown in YPL medium (Pompon et al., Methods Enzymol. 272:51–64, 1996). Approximately 24 hours after induction of cytochrome P450 expression with galactose (to 10% final concentration), a portion of the yeast cell culture was harvested by centrifugation. One-half of the culture was treated with carbon monoxide, and the cytochrome P450 CO-difference spectrum was recorded directly (using untreated cells as a control) by spectrophotometry (Omura and Sato, J. Biol. Chem. 239:2370–2378, 1964).

The nature of data set [2]: In vivo assay of yeast cells expressing recombinant oxygenases, radio-HPLC, substrate taxadiene. The class given is cell-based, Saccharomyces cerevisiae. Particulars: assayed with Taxadiene; graded symbols, key not given. An excerpt:
(§1) Transformed yeast cells that fimctionally express a recombinant cytochrome P450 gene from Taxus (by CO-difference spectrum) can be tested in vivo for their ability to oxygenate (hydroxylate or epoxidize) taxoid substrates fed exogenously to the cells, thereby eliminating the need for microsome isolation for preliminary in vitro assays.
(§2) Accordingly, several clones of the available full-length clones were expressed in induced yeast host cells.
(§3) Isolated transformants for each full-length cytochrome P450 clone shown to express a functional enzyme by CO-difference spectrum (ten clones) were grown to stationary phase in 2 mL SGI medium at 30° C. and used to inoculate a 10-mL expression culture (in YPL medium). Approximately 8 hours after induction, cells were harvested by centrifugation (10 minutes at 1500 rpm), and the pellet was resuspended in 2 mL of fresh YPL medium.
(§4) To eliminate additional complication and uncertainty associated with microsome isolations for in vitro assays, 10^6 dpm of [20-^3H3]taxa-4(5),11(12)-diene (16 Ci/mol) or [20-^3H2]taxa-4(20),11(12)-diene-5-α-ol (4.0 Ci/mol), or other taxoid substrate were added directly to the cell suspension to assay conversion in vivo. After 12 hours of incubation at 30° C. with agitation (250 rpm), the mixture was treated for 15 minutes in a sonication bath and extracted 3 times with 2 mL diethyl ether to insure isolation of the biosynthetic products. These ether extracts, containing residual substrate and derived product(s), were concentrated to dryness, resuspended in 200 μL of CH3CN, and filtered. These samples were analyzed by radio-HPLC (Hefner et al., Chemistry and Biology 3:479–489, 1996) using a 4.6 mm i.d.×250 mm column of Econosil C18, 5 μ (Alltech, Deerfield, Ill.) with a gradient of CH3CN in H2O from 0% to 85% (10 minutes at 1 mL/minute), then to 100% CH3CN over 40 minutes.

The nature of data set [3]: In vivo assay of yeast cells expressing recombinant oxygenases, radio-HPLC, substrate taxadien-5α-ol. The data set is classed as cell-based, Saccharomyces cerevisiae. To be noted: yeast transformants, radio-HPLC and GC-MS.
Description: as §1, §2, §3, §4

B1: clone F12: Taxus cuspidata cytochrome P450 oxygenase, full-length clone, SEQ ID NO: 43 (nt) / 56 (aa) (protein, listed as Taxus cuspidata)
chain: MDTFIQHESSPLLLSLTLAVILGTILLLILSGKQYRSSRKLPPGNMGFPLIGETIALISDTPRKFIDDRVKKFGLVFKTSLIGHPAVVICGSSANRFLLSNEEKLVRMSLPNAVLKLLGQDCVMGKTGVEHGIVRTALARALGPQALQNYVAKMSSEIEHHINQKWKGKDEVKVLPLIRSLVFSISTSLFFGINDEHQQKRLHHLLETVAMGLVSIPLDFPGTRFRKALYARSKLDEIMSSVIERRRSDLRSGAASSDQDLLSVLVTFKDERGNSFADKEILDNFSFLLHALYDTTISPLTLIFKLLSSSPECYENIAQEQLEILGNKKDREEISWKDLKDMKYTWQAVQETLRMFPPVYGYIREALTDIDYDGYTIPKGWRILCSPHTTHSKEEYFDEPEEFRPSRFEDQGRHVAPYTFIPFGGGLRICAGWEFAKMEILLFMHHFVKTFSHFIPVDPNEKISRDPLPPIPVKGFSIKPFPRS
Take B1: the CO diff. spec. result in data set [1] is recorded as “+”. Further, in data set [2], the “product identified HPLC peak” value is recorded as “No”. Besides, in data set [3], the “product formed from taxadien-5α-ol” value is on record as “more polar products”.

B2: clone F9: Taxus cuspidata cytochrome P450 oxygenase, full-length clone, SEQ ID NO: 48 (nt) / 61 (aa) (protein, listed as Taxus cuspidata)
chain: MDSFNFLRGIGADFGGFIQFQSSPAVLSLSLITTILGVLLLWFFLHKNGSSVTLPPGNLGFPFIGETIPFLRALRSETPQTFFDERVKKFGVVFKTRIVGHPTVVLCGPEGNRFLLSNEDKLVQASLPNSSEKLIGKYSILSKRGEEHRILRAALARFLRPQALQGYVAKMSSEIQHHIKQKWKGNDEVKVLPLIRTLIFNIASSLFFGINDEHQQEQLHHLLEAIVLGSLSVPLDFPGTRFRKALDARSKLDEILSSLMESRRRDLRLGTASENQDLLSVLLTFKDERGNPLTDKEIFDNFSFMLHASYDTTVSPTGLMLKLLFSSPDCYEKLVQEQLGIVGNKKEGEEISWNDLKAMKYTCKVVQESMRMLPPVFGSYRKAXTYIHYDGYTIPKGWNIFWSPYTTHGKEEYFNEADKFMPSRFEEGKYVAPYTFLPFGAGLRVCPGWEFAKTEILLFVHHFITTFSSYIPIDPKDKISGDPFPPLPTNGFSMKLFTRS
modifications: not fully specified; (1)..(500) “Xaa” equals any peptide
Turning to B2, the CO diff. spec. entry in data set [1] is “+”. Moreover, the “product identified HPLC peak” value in data set [2] was “No”. The “product formed from taxadien-5α-ol” value in data set [3] is listed as “more polar products”.

B3: clone F7: Taxus cuspidata cytochrome P450 oxygenase, full-length clone, SEQ ID NO: 83 (nt) / 89 (aa) (protein, listed as Taxus cuspidata)
chain: MDSFTFVTIKMGKIWQVIQVEYILSLTLTAILLFFFRYRNKSSHKLPPGNLGFPFIGETIQFLRSLRSQTPEFFFDERVKKFGPVFKTSLIGAPTVIFCGAAGSRLVLSNEDKLVQMESPSSLKKLMGENSILYKREEEHRILRSALSRFLGPQALQTYIAKMSTEIERHINEKWKGKEEVKTLPLIRGLVFSIASSLFFDINDEPQQERLHHHLESLVAGSMAVRLDFPGTRFRKAVEARSKLDEALHSLIKSRRSDLLSGKASSNQDLLSVLLSFKDERGNPLRDEEILDNFSLILHASYDTTISPMVLTLKLLSSNPECYDKVVQEQFGILANKKEGEEISWKDLKAMKYTWQVVQETLRMFPPLFGSFRKAMVDINYDGYTIPKGWIVLWTTYSTHVKEEYFNEPGKFRPSRFEHDGRHVAPYTFLPFGGGLRTCPGWEFSKTEILLFIHHFVKTFGSYLPVDPNEKISADPFPPLPANGFSIKLFPRS
Turning to B3, the CO diff. spec. result in data set [1] is given as “−”. The “product identified HPLC peak” value in data set [2] is listed as “No”.

B4: clone F51: Taxus cuspidata cytochrome P450 oxygenase, full-length clone, SEQ ID NO: 47 (nt) / 60 (aa) (protein, listed as Taxus cuspidata)
chain: MDTIRASFGEVIQPEYSPLIISXALAAFLGIVIFSIFSSTRRSYVNLPPGNLGLPFIGETIQFLGALQSEKPHTFFDERVKKFGKVFKTSLIGDPTVVLCGPAGNRLVLSNEDKLVQSAGPKSFLKLFGEDSVAAKREESHRILRSALGRFLGPHALQNYIGKMNSEMQRHFDDKWKGKDEVKVLPLVRGLIFSIATSLFFNINDDRQREQLHGLLDTILVGSMTIPLNIPGTLFRKAVKARAKLDEILFALIENRRRELRSGLNSGNQDLLSSLLTFKDEKGNPLTDKEILDNFSVMLHASYDTTVSPTVLILKLLASNPECYEKVVQEQLGILASKKEGEEVNWKDLKAMPYTWQAIQEPLXMPXQLLECFEELSLIFSWKAIQFQKDGQLCGXLIVNGREEFFNEPDKFKPSRFEEGKPLDPYTFIPFGAGVRICAGWEFAKAELLLFVHPFVKNFSGCIIIDPNEKISGDPFPPLPTSGQLMKLIPRS
modifications: not fully specified; (1)..(492) “Xaa” equals any peptide
With B4, in data set [1], the CO diff. spec. entry is given as “+”. For the same molecule, the “product identified HPLC peak” value in data set [2] is listed as “No”. Further, in data set [3], the “product formed from taxadien-5α-ol” value is “diol products”.

B5: clone F72: Taxus cuspidata cytochrome P450 oxygenase, full-length clone, SEQ ID NO: 54 (nt) / 67 (aa) (protein, listed as Taxus cuspidata)
chain: MDVFYPLKSTVAKFNECFPAILFIVLSAVAGIVLPLLLFLRSKRRSSVGLPPGKLGYPFIGESLLFLKALRSNTVEQFLDERVKNFGNVFKTSLIGHPTVVLCGPAGNRLILANEEKLVQMSWPKSSMKLMGEKSITAKRGEGHMIIRSALQGFFSPGALQKYIGQMSKTIENHINEKWKGNDQVSVVALVGDLVFDISACLFFNINEKHERERLFELLEIIAVGVLAVPVDLPGFAYHRALQARSKLNAILSGLIEKRKMDLSSGLATSNQDLLSVFLTFKDDRGNPCSDEEILDNFSGLLHGSYDTTVSAMACVFKLLSSNPECYEKVVQEQLGILSNKLEGDEITWKDVKSMKYTWQVVQETLRLYPSIFGSFRQAITDIHYNGYIIPKGWKLLWTPYTTHPKEMYFSEPEKFLPSRFDQEGKLVAPYTFLPFGGGQRSCPGWEFSKMEILLSVHHFVKTFSTFTPVDPAEIIARDSLCPLPSNGFSVKLFPRSYSLHTGNQVKKI
As for B5, the CO diff. spec. result in data set [1] is “+”. Further, the “product identified HPLC peak” value in data set [2] is listed as “No”.

B6: clone F82: Taxus cuspidata cytochrome P450 oxygenase, full-length clone, SEQ ID NO: 81 (nt) / 87 (aa) (protein, listed as Taxus cuspidata)
chain: MDAFNVLMGPLAKFDNFMQLGSYSENLSVTITVTAIAVITLLLVLIRSKPQSCVNLPPGKLGYPFIGETLQLLQAFRSNRPQQFFDERQKKFGSVFKTSLIGDRTVVLCGPSGNRLLLSNENKLVEASWPSSSIKLIGEDSIAGKNGEKHRILRAAVNRYLGPGALQNYMAKMRSEIEHHMNEKWKGKEQVKVLPLVKENVFSIATSLFFGVNDDGERERLHDLLETALAGVFSIPLDFPGTNYRKALEARLKLDKVLSSLIERRRSDLRSGVASGNEDLLSVWLTFKDEEGNPLTDKEILDNFSTLLHASYDTTTSALTLTLKLMSSSTECYHKVVQEQLRIVSNKKEGEEISLKDLKDMKYTWQVVQETLRMFPPLFGSFRKAITDIHYDGYTIPKGWKVLWTTYSTHGREEYFNEPEKFMPSRFEEEGRHVAPYTFLPFGAGVRTCPGWEFSKTQILLFLHYFVKTFSGYIPLDPDEKVLGNPVPPLPANGFAIKLFPRPSFDQGSPME
As to B6, the CO diff. spec. result in data set [1] is recorded as “−”. The “product identified HPLC peak” value in data set [2] is listed as “No”.

Values taken from patent US7005283B2, “Cytochrome P450 oxygenases and their uses” (Washington State University Research Foundation, priority 1999, dated 2006).
